Measurements reported in publication PMC8673838, “MCPH1 inhibits Condensin II during interphase by regulating its SMC2-Kleisin interface” (eLife, 2021).
Non-standard residues stand in square brackets, D forms with d. No end group written: not given here. 5‑FAM = 5-carboxyfluorescein label; pS = N[C@@H](COP(=O)(O)O)C(=O)O

What was measured:
Details in all cases: both partners purified
[1] = target: T1, human condensin II pentameric complex (SMC2, SMC4, NCAPH2, NCAPD3, NCAPG2) (human, UniProt O95347 1-1197; Q9NTJ3 1-1288; Q6IBW4 1-605; P42695 1-1498; Q86XI2 1-1143); test: pull-down; strep-tagged condensin complexes (0.1 µM) with at least a 10-fold molecular excess of MBP MCPH1 constructs or MBP, Strep-tactin sepharose, 20 mM Tris pH 7.5, 150 mM NaCl, 10 % glycerol, 1 mM DTT; five washes; Coomassie or silver stain
T1 construct: SMC2, human, subunit of condensin II; SMC4, human, subunit of condensin II; NCAPH2, human, kleisin subunit of condensin II; NCAPD3 (CAP-D3), human, HAWK subunit of condensin II; NCAPG2 (CAPG2), human, HAWK subunit of condensin II; It says only 'strep-tagged condensin II'; also called pentameric condensin II; strep-tagged condensin II; source: insect cells, purified as previously described (Kong …)
T1 sequence (O95347 whole entry, chain 1 of 4): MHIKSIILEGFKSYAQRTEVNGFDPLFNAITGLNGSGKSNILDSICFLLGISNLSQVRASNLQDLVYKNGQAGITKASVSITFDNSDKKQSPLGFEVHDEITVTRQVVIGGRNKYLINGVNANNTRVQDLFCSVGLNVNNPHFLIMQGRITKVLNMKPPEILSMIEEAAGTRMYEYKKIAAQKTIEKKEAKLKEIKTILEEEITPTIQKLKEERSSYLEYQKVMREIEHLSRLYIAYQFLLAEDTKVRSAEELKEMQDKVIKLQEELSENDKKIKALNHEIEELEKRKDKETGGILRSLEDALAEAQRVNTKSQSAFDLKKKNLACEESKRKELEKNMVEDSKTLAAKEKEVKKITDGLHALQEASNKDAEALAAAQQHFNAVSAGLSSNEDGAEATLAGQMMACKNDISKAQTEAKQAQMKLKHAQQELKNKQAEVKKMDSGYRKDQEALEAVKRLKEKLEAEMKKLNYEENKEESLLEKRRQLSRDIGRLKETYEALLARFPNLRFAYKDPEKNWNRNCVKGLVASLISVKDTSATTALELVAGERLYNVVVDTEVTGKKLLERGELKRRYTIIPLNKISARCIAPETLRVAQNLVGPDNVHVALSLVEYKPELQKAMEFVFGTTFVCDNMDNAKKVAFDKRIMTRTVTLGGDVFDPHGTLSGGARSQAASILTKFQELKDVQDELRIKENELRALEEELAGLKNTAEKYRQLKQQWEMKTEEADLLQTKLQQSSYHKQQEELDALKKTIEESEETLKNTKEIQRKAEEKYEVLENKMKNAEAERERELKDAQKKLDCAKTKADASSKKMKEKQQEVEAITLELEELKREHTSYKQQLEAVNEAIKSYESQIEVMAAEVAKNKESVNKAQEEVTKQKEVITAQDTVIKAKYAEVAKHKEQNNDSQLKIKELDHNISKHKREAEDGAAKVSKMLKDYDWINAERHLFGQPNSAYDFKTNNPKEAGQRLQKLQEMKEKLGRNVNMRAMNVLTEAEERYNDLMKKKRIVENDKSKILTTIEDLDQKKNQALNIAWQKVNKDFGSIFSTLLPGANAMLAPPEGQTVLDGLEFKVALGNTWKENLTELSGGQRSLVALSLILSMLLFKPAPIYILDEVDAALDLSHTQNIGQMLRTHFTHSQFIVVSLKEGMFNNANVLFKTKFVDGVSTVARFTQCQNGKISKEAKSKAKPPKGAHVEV
T1 sequence (Q9NTJ3 whole entry, chain 2 of 4): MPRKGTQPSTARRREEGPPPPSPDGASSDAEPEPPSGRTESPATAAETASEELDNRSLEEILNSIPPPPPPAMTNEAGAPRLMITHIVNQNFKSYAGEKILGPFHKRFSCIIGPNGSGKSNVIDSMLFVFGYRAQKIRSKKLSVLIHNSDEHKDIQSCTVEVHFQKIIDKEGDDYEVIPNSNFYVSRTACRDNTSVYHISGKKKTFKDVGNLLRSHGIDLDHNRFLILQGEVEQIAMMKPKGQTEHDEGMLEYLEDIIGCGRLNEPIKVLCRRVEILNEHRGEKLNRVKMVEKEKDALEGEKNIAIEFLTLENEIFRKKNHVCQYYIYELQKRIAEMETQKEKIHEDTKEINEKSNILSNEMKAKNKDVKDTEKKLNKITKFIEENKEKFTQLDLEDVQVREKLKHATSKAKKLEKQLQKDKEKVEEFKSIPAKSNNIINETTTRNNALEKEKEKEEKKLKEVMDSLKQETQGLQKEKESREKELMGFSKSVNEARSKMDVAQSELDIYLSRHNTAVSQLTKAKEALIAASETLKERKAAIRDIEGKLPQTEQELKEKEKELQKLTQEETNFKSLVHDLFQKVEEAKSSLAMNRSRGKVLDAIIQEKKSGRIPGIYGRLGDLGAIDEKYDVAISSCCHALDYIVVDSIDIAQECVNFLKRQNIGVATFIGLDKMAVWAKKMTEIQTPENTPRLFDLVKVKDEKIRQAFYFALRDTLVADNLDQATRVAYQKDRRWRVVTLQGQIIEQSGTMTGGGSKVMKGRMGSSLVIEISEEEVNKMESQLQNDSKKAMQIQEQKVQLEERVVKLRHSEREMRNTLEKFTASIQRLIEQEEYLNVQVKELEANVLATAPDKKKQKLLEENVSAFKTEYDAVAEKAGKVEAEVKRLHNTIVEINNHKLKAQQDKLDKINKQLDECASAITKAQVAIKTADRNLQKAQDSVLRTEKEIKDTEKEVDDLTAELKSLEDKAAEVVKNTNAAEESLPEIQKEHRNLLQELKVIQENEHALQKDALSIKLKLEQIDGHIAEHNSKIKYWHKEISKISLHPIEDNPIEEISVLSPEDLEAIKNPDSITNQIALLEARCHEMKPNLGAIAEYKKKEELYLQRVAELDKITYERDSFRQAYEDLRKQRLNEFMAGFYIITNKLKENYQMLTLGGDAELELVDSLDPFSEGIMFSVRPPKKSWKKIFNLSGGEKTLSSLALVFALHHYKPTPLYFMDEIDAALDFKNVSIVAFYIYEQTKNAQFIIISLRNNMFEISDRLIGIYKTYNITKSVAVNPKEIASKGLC
T1 sequence (Q6IBW4 whole entry, chain 3 of 4): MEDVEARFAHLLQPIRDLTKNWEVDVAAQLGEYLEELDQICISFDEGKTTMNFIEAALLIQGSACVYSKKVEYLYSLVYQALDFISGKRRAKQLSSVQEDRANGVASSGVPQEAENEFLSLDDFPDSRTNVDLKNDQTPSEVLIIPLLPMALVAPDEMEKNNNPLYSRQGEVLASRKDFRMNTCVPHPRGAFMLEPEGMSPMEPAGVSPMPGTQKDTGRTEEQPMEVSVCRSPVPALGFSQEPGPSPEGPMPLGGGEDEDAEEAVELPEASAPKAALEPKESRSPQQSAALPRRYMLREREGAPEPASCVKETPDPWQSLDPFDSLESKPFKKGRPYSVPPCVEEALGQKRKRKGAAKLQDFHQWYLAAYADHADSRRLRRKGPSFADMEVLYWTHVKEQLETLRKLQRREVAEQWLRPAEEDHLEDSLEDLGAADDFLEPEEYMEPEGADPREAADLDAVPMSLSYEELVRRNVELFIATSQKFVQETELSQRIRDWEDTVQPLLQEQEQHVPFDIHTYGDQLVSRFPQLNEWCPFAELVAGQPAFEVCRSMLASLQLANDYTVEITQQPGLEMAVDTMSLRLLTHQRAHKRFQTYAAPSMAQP
T1 sequence (P42695 whole entry, chain 4 of 4): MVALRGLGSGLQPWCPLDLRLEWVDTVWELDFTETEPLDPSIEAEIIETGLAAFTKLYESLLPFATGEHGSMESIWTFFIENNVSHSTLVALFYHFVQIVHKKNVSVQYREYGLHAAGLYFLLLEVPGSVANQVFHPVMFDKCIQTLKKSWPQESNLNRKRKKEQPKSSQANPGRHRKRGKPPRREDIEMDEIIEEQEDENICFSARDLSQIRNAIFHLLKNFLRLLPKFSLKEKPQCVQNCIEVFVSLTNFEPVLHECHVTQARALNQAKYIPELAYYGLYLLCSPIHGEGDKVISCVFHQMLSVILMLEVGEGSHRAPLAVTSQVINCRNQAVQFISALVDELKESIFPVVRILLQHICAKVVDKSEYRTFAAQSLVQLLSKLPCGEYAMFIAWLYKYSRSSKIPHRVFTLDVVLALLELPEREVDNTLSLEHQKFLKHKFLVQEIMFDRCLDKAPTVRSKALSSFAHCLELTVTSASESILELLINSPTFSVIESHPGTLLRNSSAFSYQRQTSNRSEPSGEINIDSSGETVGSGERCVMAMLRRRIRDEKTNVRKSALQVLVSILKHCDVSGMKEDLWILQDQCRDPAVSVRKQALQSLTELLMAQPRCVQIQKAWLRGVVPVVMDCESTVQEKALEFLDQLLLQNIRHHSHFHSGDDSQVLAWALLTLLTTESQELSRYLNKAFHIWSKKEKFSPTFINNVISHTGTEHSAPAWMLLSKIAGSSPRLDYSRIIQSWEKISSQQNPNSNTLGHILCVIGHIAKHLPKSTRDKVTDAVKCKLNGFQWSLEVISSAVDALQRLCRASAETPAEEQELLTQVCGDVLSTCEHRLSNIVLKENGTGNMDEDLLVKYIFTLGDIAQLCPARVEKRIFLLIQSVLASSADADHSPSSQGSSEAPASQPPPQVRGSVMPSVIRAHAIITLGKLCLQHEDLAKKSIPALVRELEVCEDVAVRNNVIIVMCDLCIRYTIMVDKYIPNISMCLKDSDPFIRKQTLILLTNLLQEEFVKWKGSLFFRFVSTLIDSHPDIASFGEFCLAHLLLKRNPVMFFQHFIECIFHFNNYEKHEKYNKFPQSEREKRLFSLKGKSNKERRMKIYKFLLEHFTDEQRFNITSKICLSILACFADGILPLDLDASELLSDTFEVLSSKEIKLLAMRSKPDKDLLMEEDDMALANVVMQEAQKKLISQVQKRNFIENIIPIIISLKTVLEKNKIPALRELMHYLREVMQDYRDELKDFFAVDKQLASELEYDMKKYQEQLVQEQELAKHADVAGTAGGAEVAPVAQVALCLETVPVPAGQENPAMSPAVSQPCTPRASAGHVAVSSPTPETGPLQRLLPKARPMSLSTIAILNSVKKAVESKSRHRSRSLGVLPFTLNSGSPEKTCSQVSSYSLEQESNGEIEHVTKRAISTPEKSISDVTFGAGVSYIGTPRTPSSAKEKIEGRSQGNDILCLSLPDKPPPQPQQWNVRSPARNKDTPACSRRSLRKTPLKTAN

[2] = target: T1, human condensin II pentameric complex …; test: native gel or EMSA; condensin II at increasing concentrations with MCPH1_(1-435)-MBP, MBP or 1 µM 5-FAM peptide and 50 nM Cy5-labelled 50 bp dsDNA; 15 min on ice; 2 % agarose, 0.5 x TBE
[3] = target: T2, tetrameric condensin II lacking NCAPD3 (human, UniProt O95347 1-1197; Q9NTJ3 1-1288; Q6IBW4 1-605; Q86XI2 1-1143); test: pull-down; strep-tagged condensin complexes (0.1 µM) with at least a 10-fold molecular excess of MBP MCPH1 constructs or MBP, Strep-tactin sepharose, 20 mM Tris pH 7.5, 150 mM NaCl, 10 % glycerol, 1 mM DTT; five washes; Coomassie or silver stain
T2 construct: SMC2, human; SMC4, human; NCAPH2, human; NCAPG2, human; also called tetrameric condensin II lacking the CAP-D3 subunit; source: insect cells, purified as previously described (Kong et al., 2020); copies: + + +
T2 sequence (O95347 whole entry, chain 1 of 3): as the sequence (O95347 whole entry, chain 1 of 4) above
T2 sequence (Q9NTJ3 whole entry, chain 2 of 3): as the sequence (Q9NTJ3 whole entry, chain 2 of 4) above
T2 sequence (Q6IBW4 whole entry, chain 3 of 3): as the sequence (Q6IBW4 whole entry, chain 3 of 4) above

[4] = target: T3, NCAPG2 subunit of human condensin II (human, UniProt Q86XI2 1-1143); test: as above
T3 construct: NCAPG2, human, HAWK subunit of condensin II; Never tested alone: the contact is drawn from complexes with and without this subunit; source: insect cells, as a subunit of purified condensin II (Kong et al., 2020)
T3 sequence (looked up): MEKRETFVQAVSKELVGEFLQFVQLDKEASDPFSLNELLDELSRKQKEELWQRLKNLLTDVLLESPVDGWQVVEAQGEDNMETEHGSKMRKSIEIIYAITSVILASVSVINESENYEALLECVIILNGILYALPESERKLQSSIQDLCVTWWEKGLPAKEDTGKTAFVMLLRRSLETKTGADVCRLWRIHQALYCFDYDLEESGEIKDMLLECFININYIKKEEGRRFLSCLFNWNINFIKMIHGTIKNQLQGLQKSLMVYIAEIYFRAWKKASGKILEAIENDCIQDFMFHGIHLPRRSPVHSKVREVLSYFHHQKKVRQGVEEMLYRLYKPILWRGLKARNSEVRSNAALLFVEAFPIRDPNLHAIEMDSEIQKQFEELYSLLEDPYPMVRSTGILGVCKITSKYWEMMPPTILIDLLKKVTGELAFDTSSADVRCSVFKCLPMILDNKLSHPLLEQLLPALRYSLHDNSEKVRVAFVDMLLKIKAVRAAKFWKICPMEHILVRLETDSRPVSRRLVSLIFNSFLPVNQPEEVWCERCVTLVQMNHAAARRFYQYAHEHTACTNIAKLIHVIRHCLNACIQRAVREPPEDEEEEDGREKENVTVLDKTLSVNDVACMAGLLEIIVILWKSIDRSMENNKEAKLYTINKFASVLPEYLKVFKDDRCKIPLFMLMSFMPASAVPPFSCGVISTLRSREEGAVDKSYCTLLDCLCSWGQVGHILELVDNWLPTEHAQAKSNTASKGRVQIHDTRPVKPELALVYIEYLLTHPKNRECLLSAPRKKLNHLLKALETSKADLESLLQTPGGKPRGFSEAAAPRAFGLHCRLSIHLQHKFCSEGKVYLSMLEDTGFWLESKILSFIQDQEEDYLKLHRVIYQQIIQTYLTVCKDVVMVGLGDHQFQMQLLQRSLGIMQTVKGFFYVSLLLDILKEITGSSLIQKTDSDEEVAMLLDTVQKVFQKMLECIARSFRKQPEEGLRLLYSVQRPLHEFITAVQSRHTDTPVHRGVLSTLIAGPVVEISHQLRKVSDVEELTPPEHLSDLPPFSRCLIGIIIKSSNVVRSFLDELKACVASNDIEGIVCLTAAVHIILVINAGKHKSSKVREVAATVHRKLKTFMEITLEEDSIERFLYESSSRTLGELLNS

[5] = target: T1, human condensin II pentameric complex …; test: SEC; complex of condensin II (wild type or Q-loop mutant) with MCPH1_(1-435)MBP purified by gel filtration on Superose 6 10/300 in 20 mM Tris pH 7.5, 150 mM NaCl, 1 mM DTT, for ATPase assays
[6] = target: T4, condensin II with Q-loop mutation (SMC2 Q147L, SMC4 Q229L) (human, UniProt O95347 1-1197; Q9NTJ3 1-1288; Q6IBW4 1-605; P42695 1-1498; Q86XI2 1-1143, SMC2 Q147L | SMC4 Q229L); test: as above
T4 construct: SMC2, human, Q-loop mutant; SMC4, human, Q-loop mutant; NCAPH2, human; NCAPD3, human; NCAPG2, human; also called ATPase hydrolysis deficient Q-loop mutant condensin II; source: insect cells, purified as previously described (Kong et al., 2020); copies: + + + +
T4 sequence (O95347 whole entry Q147L, chain 1 of 4): as the sequence (O95347 whole entry, chain 1 of 4) above, with Q147L counted along it
T4 sequence (Q9NTJ3 whole entry Q229L, chain 2 of 4): as the sequence (Q9NTJ3 whole entry, chain 2 of 4) above, with Q229L counted along it
T4 sequence (Q6IBW4 whole entry, stated change not applied, chain 3 of 4): as the sequence (Q6IBW4 whole entry, chain 3 of 4) above
T4 sequence (P42695 whole entry, stated change not applied, chain 4 of 4): as the sequence (P42695 whole entry, chain 4 of 4) above

[7] = target: T1, human condensin II pentameric complex …; test: fluorescence polarisation; competition; 0.63 µM condensin II and 0.3 µM 5-FAM peptide fixed, unlabelled peptide in two-fold series; 20 mM Tris pH 7.5, 200 mM NaCl, 1 mM DTT; fit for directly competitive binding
[8] = target: T1, human condensin II pentameric complex …; test: fluorescence polarisation; direct binding; 0.3 µM 5-FAM peptide, 0.625-5 µM condensin II complex; 20 mM Tris pH 7.5, 200 mM NaCl, 1 mM DTT; room temperature
[9] = target: T1, human condensin II pentameric complex …; test: pull-down; strep-tagged full-length MCPH1 and condensin II separately purified, mixed on strep-tactin sepharose; SDS-PAGE, silver stain

B1: MBP-MCPH1_(348-469) (domain or fragment, human, UniProt Q8NEM0 348-469, looked up)
chain: RPRSSSVKRKRVSHGSHSPPKEKCKRKRSTRRSIMPRLQLCRSEDRLQHVAGPALEALSCGESSYDDYFSPDNLKERYSENLPPESQLPSSPAQLSCRSLSKKERTSIFEMSDFSCVGKKTR
notes: MCPH1, human, residues 348-469; This construct is named in the results only; also called His-MBP-MCPH1 348-469; source: E. coli, purified; not shown: MBP, N-terminal, kept
Q: Does B1 bind [1]?
A: Result: binds

B2: MBP-MCPH1_(196-435) (domain or fragment, human, UniProt Q8NEM0 196-435, looked up)
chain: QMIQQSHDNPSNSLCEAPLNISRDTLCSDEYFAGGLHSSFDDLCGNSGCGNQERKLEGSINDIKSDVCISSLVLKANNIHSSPSFTHLDKSSPQKFLSNLSKEEINLQRNIAGKVVTPDQKQAAGMSQETFEEKYRLSPTLSSTKGHLLIHSRPRSSSVKRKRVSHGSHSPPKEKCKRKRSTRRSIMPRLQLCRSEDRLQHVAGPALEALSCGESSYDDYFSPDNLKERYSENLPPESQL
notes: source: E. coli BL21 (DE3) pLysS, purified (Ni-NTA, ion exchange or heparin); not shown: MBP, N-terminal, kept
Q: Does B2 bind [1]?
A: Result: binds

B3: MCPH1_(1-435)-MBP (domain or fragment, human, UniProt Q8NEM0 1-435, looked up)
chain: MAAPILKDVVAYVEVWSSNGTENYSKTFTTQLVDMGAKVSKTFNKQVTHVIFKDGYQSTWDKAQKRGVKLVSVLWVEKCRTAGAHIDESLFPAANMNEHLSSLIKKKRKCMQPKDFNFKTPENDKRFQKKFEKMAKELQRQKTNLDDDVPILLFESNGSLIYTPTIEINSRHHSAMEKRLQEMKEKRENLSPTSSQMIQQSHDNPSNSLCEAPLNISRDTLCSDEYFAGGLHSSFDDLCGNSGCGNQERKLEGSINDIKSDVCISSLVLKANNIHSSPSFTHLDKSSPQKFLSNLSKEEINLQRNIAGKVVTPDQKQAAGMSQETFEEKYRLSPTLSSTKGHLLIHSRPRSSSVKRKRVSHGSHSPPKEKCKRKRSTRRSIMPRLQLCRSEDRLQHVAGPALEALSCGESSYDDYFSPDNLKERYSENLPPESQL
notes: the text says the tag was moved to the C-terminus for this experiment; source: E. coli BL21 (DE3) pLysS, purified (Ni-NTA, ion exchange or heparin); not shown: MBP, C-terminal, kept
Q: Does B3 bind [2]?
A: Result: binds

Q: Does B3 bind [3]?
A: Result: binds

Q: Does B3 bind [4]?
A: Result: binds

B4: MBP-MCPH1_(1-435) (domain or fragment, human, UniProt Q8NEM0 1-435, looked up)
chain: B3 chain
notes: as for B2
Q: Does B4 bind [1]?
A: Result: binds

B5: MCPH1_(1-435)MBP after removal of the N-terminal 6xHis tag (domain or fragment, human, UniProt Q8NEM0 1-435, looked up)
chain: B3 chain
notes: Same construct as m11, His tag cut off by TEV before gel filtration with condensin II; source: E. coli BL21 (DE3) pLysS, purified (Ni-NTA, ion exchange or heparin, SEC), treated with TEV protease; not shown: His6, N-terminal, cleaved; MBP, C-terminal, kept
Q: Which results are given for B5?
A: binding result [5]: binds; binding result [6]: binds

B6: MCPH1_(407-424) peptide phosphorylated at serine 417 (peptide)
peptide: CGESSYDDYF[pS]PDNLKER
notes: S417 is phosphoserine; also called MCPH1pS417; source: synthetic peptide (Genscript)
Q: Which Kd [7] does the source give for B6 here?
A: The Kd was 53 ± 8 µM.

B7: 5-FAM-labelled MCPH1_(407-424) peptide (peptide)
peptide: {5‑FAM}-CGESSYDDYFSPDNLKER
notes: also called 5FAM-MCPH1; source: synthetic peptide (Genscript)
Q: How did the Kd [8] turn out when B7 was run?
A: Its Kd is 0.64 µM.

B8: strep-tagged full-length human MCPH1 (natural protein, UniProt Q8NEM0 1-835, looked up)
chain: MAAPILKDVVAYVEVWSSNGTENYSKTFTTQLVDMGAKVSKTFNKQVTHVIFKDGYQSTWDKAQKRGVKLVSVLWVEKCRTAGAHIDESLFPAANMNEHLSSLIKKKRKCMQPKDFNFKTPENDKRFQKKFEKMAKELQRQKTNLDDDVPILLFESNGSLIYTPTIEINSRHHSAMEKRLQEMKEKRENLSPTSSQMIQQSHDNPSNSLCEAPLNISRDTLCSDEYFAGGLHSSFDDLCGNSGCGNQERKLEGSINDIKSDVCISSLVLKANNIHSSPSFTHLDKSSPQKFLSNLSKEEINLQRNIAGKVVTPDQKQAAGMSQETFEEKYRLSPTLSSTKGHLLIHSRPRSSSVKRKRVSHGSHSPPKEKCKRKRSTRRSIMPRLQLCRSEDRLQHVAGPALEALSCGESSYDDYFSPDNLKERYSENLPPESQLPSSPAQLSCRSLSKKERTSIFEMSDFSCVGKKTRTVDITNFTAKTISSPRKTGNGEGRATSSCVTSAPEEALRCCRQAGKEDACPEGNGFSYTIEDPALPKGHDDDLTPLEGSLEEMKEAVGLKSTQNKGTTSKISNSSEGEAQSEHEPCFIVDCNMETSTEEKENLPGGYSGSVKNRPTRHDVLDDSCDGFKDLIKPHEELKKSGRGKKPTRTLVMTSMPSEKQNVVIQVVDKLKGFSIAPDVCETTTHVLSGKPLRTLNVLLGIARGCWVLSYDWVLWSLELGHWISEEPFELSHHFPAAPLCRSECHLSAGPYRGTLFADQPAMFVSPASSPPVAKLCELVHLCGGRVSQVPRQASIVIGPYSGKKKATVKYLSEKWVLDSITQHKVCAPENYLLSQ
notes: MCPH1, human, full length; pLIB MCPH1 from Genscript; also called full-length MCPH1; microcephalin; source: High Five insect cells (baculovirus), purified (StrepTrap, SEC)
Q: Does B8 bind [9]?
A: Result: binds

B9: MCPH1_(407-424) peptide, wild-type, unlabelled (peptide)
peptide: CGESSYDDYFSPDNLKER
notes: source: synthetic peptide (Genscript)
Q: Which Kd [7] does the source give for B9 here?
A: The Kd was 5.3 ± 1 µM.
